Measured values: the supplement of paper PMC12338614

B1: library; numbered along this chain (parent)
chain: MEVVDPQQLGMFTEGELMSVGMDTFIHRIDSTEVIYQPRRKRAKLIGKYLMGDLLGEGSYGKVKEVLDSETLCRRAVKILKKKKLRRIPNGEANVKKEIQLLRRLRHKNVIQLVDVLYNEEKQKMYMVMEYCVCGMQEMLDSVPEKRFPVCQAHGYFCQLIDGLEYLHSQGIVHKDIKPGNLLLTTGGTLKISDLGVAEALHPFAADDTCRTSQGSPAFQPPEIANGLDTFSGFKVDIWSAGVTLYNITTGLYPFEGDNIYKLFENIGKGSYAIPGDCGPPLSDLLKGMLEYEPAKRFSIRQIRQHSWFRKKHPPAEAPVPIPPSPDTKDRWRSMTVVPYLEDLHGADEDEDLFDIEDDIIYTQDFTVPGQVPEEEASHNGQRRGLPKAVCMNGTEAAQLSTKSRAEGRAPNPARKACSASSKIRRLSACKQQ

Variants of: B1
Test: STK11 functional score (HeLa growth suppression), rescaled enrichment; synonymous median = 1, nonsense median = 0 (normalised score)
Settings: with HeLa; variant type: missense
Summary of the method: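 HeLa cells carrying an AAVS1 landing pad received codon-optimised STK11 libraries made by codon randomisation (POPCode), integrated by Bxb1, with three regions each transfected three times. Integrants that were BFP-negative and mCherry-positive were sorted by FACS 4–5 days after electroporation and then grown for about two weeks. Tiled amplicons from gDNA were sequenced on NextSeq at ~2 million reads per tile. The functional score is a wild-type-corrected log ratio of post- to pre-selection counts, rescaled to the synonymous and nonsense medians, merged across codons and replicate transfections, and given a bootstrapped error.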

STK11 functional score, by site and new letter:
E317: H 1.25, F 0.542, N 1.6, D 1.57, V 1.36, R 1.58, S 0.661, Y 1.04, C 1.49, G 1.56, M 0.316, A 1.53, Q 1.2, I 1.55, P 1.6, L 1.34, W 1.62
P321: R 1.26, L 1.17, I 1.53, W 1.6, A 0.987, D 1.55, N 1.03, H 1.21, Y 0.641, F 0.903, S 1.42, G 1.01, V 1.41, M 1.61
A318: R 1.43, Q 1.61, L 1.58, S 1.33, D 1.51, C 1.23, Y 1.63, M 0.577, V 1.11, I 1.49, T 1.17, P 1.59, F 1.6
I322: F 1.25, C 1.17, T 0.984, S 1.21, L 0.886, H 0.839, W 1.18, G -0.0839, M 0.829, E 1.11, Q 0.336, A 1.53, V 1.08, N 1.59, D 1.18, R 1.11, Y 0.925
A316: W 0.538, M 1, S 0.768, P 0.694, F 1.19, L 0.961, I 1.32, Q 1.53, V 0.768, R 0.901, G 1.25, Y 1.4
P323: D 1.33, G 1.13, L 0.92, F 1.36, H 1.42, R 1.01, I 1.52, K 1.58, W 0.993, V 1.01, Q 0.422, N 1.53, S 1.3, A 1.15, C 1.28, T 1.32, M 1.55, E 1.56
V320: I 1.59, W 0.717, F 1.07, R 1.49, L 0.723, C 0.788, A 1.55, H 1.59, S 1.48, M 1.47, T 1.57, Y 1.55, P 1.56
P315: D 1.51, W 0.723, Q 1.34, L 1.42, M 1.6, S 1.41, I 1.21, E 1.57, V 1.17, C 1.17, H 1.34, Y 1.29, A 1.07, N 1.51, G 1.29, T 1.2, R 1.32, K 1.56
S325: A 1.05, L 1.57, M 0.0951, I 1.56, E 1.24, N 1.47, G 0.96, H 1.54, D 1.09
P314: V 1.16, Y 0.95, W 1.6, T 1.54, R 1.26, S 1.33
P324: W 0.731, L 1.37, C 1.33, H 1.48, K 0.708, E 1.53, S 1.45, T 1.15, M 0.794, R 1.17, G 1.36, D 1.57, V 1.58, A 1.35, I 1.56
P319: G 1.53, Y 1.46, R 1.53, S 1.4, M 1.39, Q 1.39, L 1.3, V 0.772, N 1.48, W 0.513, D 1.52, F 1.47, A 1.37, C 0.642, H 1.16
